From PMC10716038, “Talin and kindlin use integrin tail allostery and direct binding to activate integrins” (Nature Structural & Molecular Biology, 2023)
Where “and” joins values, the source holds several entries; their conditions need not be identical. Equal values may be shown once. No end group written: not given here.

T1: biotinylated integrin β3 transmembrane and cytoplasmic tail polypeptide (β3-TM–CT) in nanodiscs (UniProt O54890 715-787, biotin (biotin-maleimide))
T1 construct: integrin β3 TM and CT, residues 715-787; embedded in MSP2N2 nanodiscs with 10% PIP2 or PIP3 and 90% DMPC; held on streptavidin beads; also called b3; source: E. coli BL21 (DE3) Rosetta 2, inclusion bodies, purified (IMAC, cation exchange)
T1 sequence (looked up): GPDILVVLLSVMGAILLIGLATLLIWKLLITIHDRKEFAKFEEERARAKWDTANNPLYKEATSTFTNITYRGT

B1: talin-1 head domain (THD1) (domain or fragment, UniProt P26039 1-405, looked up)
chain: MVALSLKISIGNVVKTMQFEPSTMVYDACRMIRERIPEALAGPPNDFGLFLSDDDPKKGIWLEAGKALDYYMLRNGDTMEYRKKQRPLKIRMLDGTVKTIMVDDSKTVTDMLMTICARIGITNHDEYSLVRELMEEKKDEGTGTLRKDKTLLRDEKKMEKLKQKLHTDDELNWLDHGRTLREQGVEEHETLLLRRKFFYSDQNVDSRDPVQLNLLYVQARDDILNGSHPVSFDKACEFAGFQCQIQFGPHNEQKHKAGFLDLKDFLPKEYVKQKGERKIFQAHKNCGQMSEIEAKVRYVKLARSLKTYGVSFFLVKEKMKGKNKLVPRLLGITKECVMRVDEKTKEVIQEWSLTNIKRWAASPKSFTLDFGDYQDGYYSVQTTEGEQIAQLIAGYIDIILKKKKS
notes: talin-1 (TLN1) head domain (THD), residues 1-405; murine TLN1 cDNA is named only for the cell lines; also called WT; source: E. coli (DE3) Rosetta 2, purified (IMAC, SEC); not shown: His10-SUMO, N-terminal, cleaved
B2: ATTO 488-labeled integrin β1 cytoplasmic tail (488–β1-CT) (peptide, UniProt P09055-1 758-798, looked up)
peptide: {ATTO 488}-HDRREFAKFEKEKMNAKWDTGENPIYKSAVTTVVNPKYEGK
notes: integrin β1A cytoplasmic tail (β1-CT), residues 758-798; the limits 758-798 are stated for the recombinant β1-CT; also called β1A-CT; source: synthetic peptide (MPIB Core Facility)

Assays:
Conditions in all cases: both partners purified
[1] = target: T2, biotinylated integrin β1 transmembrane and cytoplasmic tail polypeptide (β1-TM–CT) in nanodiscs (UniProt P09055 726-798, biotin (biotin-maleimide)); assay: flow cytometry-based reporter-displacement assay (FC-RDA) on beads; biotinylated TM–CT in PIP2-containing nanodiscs on streptavidin beads; reporter 647–KIND2-Y13A, unlabelled competitor titrated; IC50 of individual experiments
T2 construct: integrin β1 TM and CT, residues 726-798; embedded in MSP2N2 nanodiscs with 10% PIP2 or PIP3 and 90% DMPC, on average one TM–CT per nanodisc; held on streptavidin beads; also called b1; source: E. coli BL21 (DE3) Rosetta 2, inclusion bodies, purified (IMAC, cation exchange)

[2] = target: T2, biotinylated integrin β1 transmembrane …; assay: flow cytometry-based reporter-displacement assay (FC-RDA) on beads; biotinylated TM–CT in 10% PIP2/90% DMPC nanodiscs on streptavidin beads; reporter 100 nM 565–THD1, unlabelled competitor titrated; 20 mM Tris pH 7.5, 200 mM NaCl, room temperature; IC50 of individual experiments; charged lipids contribute to the binding
[3] = target: T2, biotinylated integrin β1 transmembrane …; assay: flow cytometry-based reporter-displacement assay (FC-RDA) on beads; biotinylated TM–CT in 10% PIP2/90% DMPC nanodiscs on streptavidin beads; reporter 50 nM 647–KIND2, unlabelled competitor titrated; 20 mM Tris pH 7.5, 200 mM NaCl, room temperature; IC50 of individual experiments; charged lipids contribute to the binding
[4] = target: T1, biotinylated integrin β3 transmembrane …; assay: flow cytometry-based reporter-displacement assay (FC-RDA) on beads; biotinylated TM–CT in 10% PIP3/90% DMPC nanodiscs on streptavidin beads; reporter 100 nM 565–THD1, unlabelled competitor titrated; 20 mM Tris pH 7.5, 200 mM NaCl, room temperature; IC50 of individual experiments; charged lipids contribute to the binding
[5] = target: B1; assay: MST; apparent; THD1 titrated to 488–β1-CT or THD2 to 488–β3-CT in the presence of 30 µM KIND2; MST buffer
[6] = target: B1; assay: MST; apparent; THD1 titrated to 488–β1-CT or 488–β3-CT in the presence of 500–1,100 µM KIND2-F0; MST buffer
[7] = target: B1; assay: MST; apparent; THD1 titrated to 488–β1-CT or 488–β3-CT in the presence of 300–400 µM β-CT-binding-impaired KIND2 Q614A,W615A (QW/AA); MST buffer
[8] = target: B1; assay: MST; unlabelled protein titrated to 50-200 nM ATTO 488-labelled β-CT peptide, no third protein; 20 mM Tris pH 7.5, 200 mM NaCl, 1 mM TCEP, 0.05% Tween-20; Kd of individual titrations (in S0002 mean and sd, n = 2)
[9] = target: B1; assay: as above; remark: listed apart in the source

IC50 [1] | IC50 [2] | IC50 [3] | IC50 [4] | Kd [5] | Kd [6] | Kd [7] | Kd [8] | Kd [9] [nM] | Binder
321 nM and 390 nM and 506 nM and 206 nM | 49 nM and 91 nM and 89 nM and 62 nM | 249 nM and 192 nM and 87 nM | 53 nM and 70 nM and 127 nM | – | – | – | – | – | B1
– | – | – | – | 159000 nM and 173000 nM and 127000 nM | 173000 nM and 137000 nM and 177000 nM | 148000 nM and 212000 nM and 195000 nM | 128000 nM and 152000 nM and 141000 nM | 152000 | B2
